Measurements: publication PMC8927995

Molecular target: PspR, DTG rhodopsin from Pseudomonas putida (Pseudomonas putida)
Experiment: crystal structure

Substance: PspR, DTG rhodopsin from Pseudomonas putida (natural protein)
- stoichiometry N: 3
